Data as given in the nanobody polyreactivity screen of Harvey et al. (2022).

Experiment: yeast display, Sf9 membrane polyspecificity reagent, FACS + sequencing; frameworks hold sequencing errors
How it was run: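 Synthetic nanobody libraries on Saccharomyces cerevisiae BJ5465 were galactose-induced for 36–48 hours, stained 1 hour at 4 °C with 10% biotinylated, detergent-solubilized Sf9 membrane reagent and enriched on streptavidin microbeads. FACS then separated cells into low and high (top ~1%) gates by anti-HA (expression) and streptavidin (reagent binding) fluorescence. Genes were colony-PCR amplified, MiSeq 2 × 250 sequenced and CDR-length filtered. A clone's polyreactivity label is that of its gate of origin.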

Sequence	polyreactivity (PSR sort gate)
QVQLVESGGGLVQAGGSLRLSCAASGGTFYAYAMGWYRQAPGKERELVAAISRSGSTYYADSVKGRFTISRDNAKNTVYLQMNSLKPEDTAVYYCAARRARRDPVGYVYAKYGYWGQGTQVTVSS	high polyreactivity
QVQLQESGGGLVQAGGSLRQSYAASGYIFPSLAMGWYRQAPGKEREFVAAIGRGSTNNYADSVKGRFTISRDNAKNTAFQHMKSLKPEDTAVYYCAAAASPLTRHLYWGQGTQVSVSS	low polyreactivity
QVQLVESGGGLVQAGGSLRLSCAASGRTFSPYMGWSRQAPGKERELVAAISKSGGRTYYADSVKWSFTISRDNAKNTVYLQMNSLQPEDTAVYYCATSGNNYYYALYGYWVQGTQVTVSS	low polyreactivity
QDQLVESGGGLVQAGGSLRLSCAASGSTFGYARGWYRQAPGKERELVAAITSTGGSTYYADSVKGRFTISRDNAKNTVYLQMNSLKPEDTAVYYCAAQVGRVYVVYPVYKYGYWGQGTQVTVSS	high polyreactivity
QVQLEESGGGLVQAGGSLRLSCAASGYILNDYTKGWYRQAPGKERELVAAITSSGDRTYYADSVKGRFTISRDNAKNTVYLQMNSLNPEDTAVYYCAADIYLGDYYYWGLGTQVTVSS	low polyreactivity
QVQLVESGGGLVQAGGSLRLSCAASGIIFGYYAMGRYRQAPGKERELVAAITWSGGSTYYADSVKGRFTISRDNAKNTVYLQMNSLKPEDTAVYYCAAGDPTLLNESFDYWGQGTQVTVSS	low polyreactivity
QVQLVESGGGLVQAGGSLRLSCAASGFTFSSYAMGWYRQAPGKERELVAAINWSGGSTYYADSVKGRFTISRDNAKNTVYLQMNSLKPEDTAVYYCATSVKDRYWVDYWGQGTQVTVSS	high polyreactivity
QVQLVESGGGLVQAGGSLRLSCAASGRIFYSNAMGWYRQAPGKERELVAVIRRTGSTYYADSVKGRFTISRDNAKNTVYLQMNSLKPEDTAVYYCATRIPYGRGGNRYDYWGQGTQVTVSS	low polyreactivity
QVQLVESGGGLVQAGGSLRLSCAASGSIFGYYAMGWYRQAPGKERELVAAISSGDSTYADSVKGRFTISRDNAKNTVYLQMNSLKPEDTAVYYCAADEYYTFSSFELRRMDYWGQGTQVTVSS	low polyreactivity
QVQLVESGGGLVQAGGSLRLSCAASGIIFLLYAMGWYRQAPGKERELVAAITNGGRTNYADSVKGRFTISRDNAKNTVYLQMNSLKPEDTAVYYCNAVLSVPDYTLFDYWGQGTQVTVSS	low polyreactivity
QVQLEDSGGGLVQAGGSLRLSCAASGLNLYRYAMGVYRQEPGKEREFVASISWSGGSTYYADSVKGRFTISRDNAKNTVYLQMNSLKPEDTAVYYCATDSDTSQLGYDYWGQGTQVTVAS	low polyreactivity
QVQLVESGGGLVQAGGSLRLSCAASGFIFVGYAMGWYRQAPGKERELVAAITDGGRTKYADSVKGRFTISRDNAKNTVYLQMNSLKPEDTAVYYCAADDLHTYYTLDYWGQGTQVTVSS	high polyreactivity
QVQLGESGVGLVQAGGSHRLSCAASGSTSPINAMGWYRQAPGKERELVAVISSSGGRTYYADSVKGRFTISRDNAKNTVYLQMNSLKPEDTAVYYCANRFSRRQPDYDYWGQGTQVTVSS	high polyreactivity
QVQLVESGGGLVQAGGSLRLSCAASGSIFHTYVMGWYRQAPGKERELVASITRSGGSTYYADSVKGRFTISRDNAMNTVYLQMNSLKPEDTAVYYCAATYRTANHRYYYWGQGTQVTVSS	high polyreactivity
QVQLLESGGGLVQAGGSLRLSCAASGIIFCEYAMGWYTQAPGKERELVATITSGDSTNYADSVKGRFTISRDNAKNTVYLQMNSLKPEDTAVYYCIADYAFLPSYDYWGQGTQVTVSS	low polyreactivity
QVQLVESGGGLVQAGGSLRLSCAASGSIFRFYAMGWYRQAPWKERELVAGITWSGASTYYADSVKGRFTISRDNAKNTVYLQMNSLKPEDNAVYYCAAKSLIVRYDSWGQGTQVTVSS	high polyreactivity
QVQLVESGGGLVQAGGSLRLSCAASGRTFDWYAMGWYRQAPGKERELVAVITGRGGSTYYADSVKGRFTISRDNAKNTVYLQMNSLKPEDTAVYYCAVDRLRYRLGFGFKFDYWGQGTQVTVSS	low polyreactivity
QVQLVESGGGLLQAGGSLRISCAASGSTFGVYAMGWYIPAPGKERELVAVIRRGGGTDYADSVKGRYTISRDNAKNTVYLQLDSLIPVDTAVYSCAATVVRTGYLTLEMDYWGQGTQVTVSA	low polyreactivity
QVQLVESGGGLVQAGGSLRLRCAASGNIFGIYTMAWYRQAPGKESDFVAVISLSGTSTYYADSVKGRFTISRDNAKNTVYLQMNSLKPEDTAVYYCNARTPHNKGRRRAYDYWGQGTEVTVSS	high polyreactivity
QVQLVESGGGLVQAGGRLRLSCAASGRTFGRYAMGWYRQAPGKERELVAAITGGVITTYADSVKGRFTISRDNAKNTVYLQMNSLKPEDTAVYYCAARYNVFPSPHYYYWGQGTQVTVSS	low polyreactivity
QVQLQESDGGLVQAGGSLRLTCAASGSISPQYYMGWYRQAPGQEREFVAISKGTTTYYADSVKGRLTISRVNAKNTVYLQMNSLKPEDTAVYCCAAGRWLQKVHAYWDQGTQVTVSS	low polyreactivity
QVQLVESVGGLVQAGGSLRLSCAASGFIFRPYAMGWSRQAPGKERELVAAISWSGDRTYYADSVKGRFTISRDNAKNTVYLQMNSLKPEDTAVYYCAAEGVTRDYDYWGQGTQVTVSS	low polyreactivity

Sequence	polyreactivity (PSR sort gate)
QVQLVESGGGLVQAGGSLRLSCAASGLTFVDNAMGWYRQAPGKESELVAAITKRGGRTYYADSVKGRFTISRDNAKNTFYLQMNSLKPEDTAVYYCARESGNDSSRRLDYWGQGTQVTVSS	low polyreactivity
QVQLVESGGVLVQAGGSLRLSCAASGSTFHRSAMGWYRQAPGKERELVATINLNTGSTYADSVKGRFTISRDNAKNTVYLQMNSLKPEDTAVYYCAAYGRWPFTWYNYWGQGTQVTVSS	low polyreactivity
QVQLVESGGGLVQAGGSLRLSCAASGRIFKRYAKGWYRQAPGKERELVAAISGSGGSTSYADSVKGRFTLSRDNAKNTVYLQMNSLKPEDTAVYYCNTTPRFIRSIGQGNYWVQGTQVTVSS	high polyreactivity
QVQLVESGGGLVQAGGSLRLSCAASGGIFDRYAMGWYRQAPGKERELVAGITWSGGRTYYADSVKGRFTISRDNAKNTVYLQMNSLKPEDTAVYYCAASLYTWTYQPVYYRDGYWGQGTQVTVSS	low polyreactivity
QVQLVESGGGLVQAGGSLRLSCAASGRIFDVYEMGWYRQAPGKERELVAAMTWSGTSTYYADSVKGRFTISRDNAKNTVYLQMNSLKPEDTAVYYCNALSYGRYLNYRGGMDYWGQGTQVTVSS	high polyreactivity
QVQLVESGGGLVQAGGSLRLSCAASGSTFAYYAMGWYRQAPGKEREFVAAISSRKDSTYADSVKGRFTLSRDNAKNTVYLQMNSLKPEDTAVYYCAKGPYYWSSSRVRYDYWGQGTQVTVSS	high polyreactivity
QVQLVESGGGLVQAGGSLRLSCAASGSTFGFYTMGWYRQAPGKERELVAAISWSTGRTYYADSVKGRFTISRDNAKNTVYLQMNSLKPEDTAVYYCAARALDKYRFGGRYDYWGQGTQVTVSS	low polyreactivity
QVQLVESGGGLVQAGGSLRLSCAASGFIFRTYAMGWYRQAPGKERELVAAITYSAGSTYYADSVKGRFTISRDNAKNTVYLQMNSLKPEDTAVYYCNVRKTWYGYSVTGRYDYWGQGTQVTVSS	low polyreactivity
QVQLVESGGGLVQAGGSLRLSCASSGRIFFMYAMGWYIQAPGKERELVAAINKSGGSTYADSVKGRFTISRDNANNTVYLQMNSLKPEDTAVYYCATENTDSGESVYIVKYGSDYWGQGTQVTVSS	low polyreactivity
QVQLVESGGGLVQAGGSLRLSCAASGFTFFQYAKGWYRQAPGKERELVAAISARGGRTYYADSVKGRFTISRDNAKNTVYLQMNSLKPEDTAVYYCAKRTRTIQGHYDYWGQGTQVTVSS	high polyreactivity
QVQLVESGGGLVQAGGSLRLSCAASGFILYYYAKGWYRPAPGKERELVAAISWSGDSTYYADSVKGRFTISRDNAKNTVYLQMNSLKPEDTAVYYCAATWQLTHRYYWGQGTQVTVSS	low polyreactivity
QVQLVESGGGLVQAGGSLRLSCAASGSIFRYNAMGWDRQAPGKERELVAGITWGGSTYYADSVKGRFTISRDNAKNTVYLQMNSLKPEDTAVYYCAAGRYGDYGYWGQGTQVTVSS	high polyreactivity
QVQLVESGGGLVQAGGSLRLSCAASGFIFRSNAMGWYRQAPWKEREFVAAITYSSGSTYYRNSVKGRFTISRDNAKNTVYLQMNSLKPEDTAVYYCATPVTNGFDYWGQGTQVTVSS	high polyreactivity
QVQLVESGGGKVQAGGSLRLSCAASGRTFWVYAMGWYRPAPGKERELVASISWSVGSTYYADSVKGRFTISRDNAKNTVYLQMNSLKPEDTAVYYCAADPSPYGDEYDYWGQGTQVTVSS	low polyreactivity
QVQLVESGGGLVQAGGSLRLSCAASGITLNRNAMGWYKQAPGKERELVARISRRGGTTYYADSVKGRFTISRDNAKNTVYLQLNSLKPEDSAVYYCAKVRRRWGYPSYSYPYGYWGQGTQVTVSS	high polyreactivity
QVQLVESGGGLVQAGGSLRLSCAASGSTFGWNTMGWYRQAPGKERELVAAISWSGDRTYYADSVKGRFTISRDNAKNTVYLQMNSLKPDDTAVYYCARQRYYGYYYWGQGTQVTVSS	high polyreactivity
QVQLVESGGGLVQAGGSLRLSCAASGFTLEYYAMGWYRQAPGKERELVASISSGGRTNYADSVKGRFTISRDNAKNTVYLQMNSLKPEDTAVYYCAAEYRSWGRYRYRFNYWGEGTQVTVSS	high polyreactivity
QVQLVESVGGLVQAGGSLRLICAASGRIFVHYAMGWYRQAPGKERELVAAISWNGGRTFYADSVKGRFTISRDNAKNTVYLQMNSLKPEDTAVSYCAARSRYSLDYWGQGTQVTVSS	high polyreactivity
QVQLVESGGRLVQAGGRLRLSCDASGYIISSYVMGWYRQAHGKDKELVAAINRRGGSTYYADSVKGRFTISRDNAKNTVYLQMNSLKPEDTAVYYCAADGLSGYGSGGYYGMGYWGQGTQVTVSS	high polyreactivity
QDQLVESGGGLVQAGGSLRLICAASGSIFSKKAMGLYRQAPGKERELVAAISASGASTYYADSVKGRFTISRDNEKNTVYLQMNSLKPEDTSVYYCNADVSGVSSYGLSYEFYYWGQGTQVTVSS	low polyreactivity
QVQLLESGGGLVQAGGTLRLSCAASGITFTVYTMGWYRQAPGKERELVAAIDSDGITNYADSVKGRFTISRDNAKNTVYLQMNSLKPEDTAVYYCAKQSGRADGVSGFDYWGQGTQVTVSS	low polyreactivity
